According to EP1992633A1 (HUMAN GENOME SCIENCES, INC., dated 2008):

Columns and labels:
Experiment in all cases: method not described (cites Mazzei et al. 1995)
Fas = molecular target: T1, Fas (UniProt P25445 26-173, limits assumed)
T1 sequence (looked up): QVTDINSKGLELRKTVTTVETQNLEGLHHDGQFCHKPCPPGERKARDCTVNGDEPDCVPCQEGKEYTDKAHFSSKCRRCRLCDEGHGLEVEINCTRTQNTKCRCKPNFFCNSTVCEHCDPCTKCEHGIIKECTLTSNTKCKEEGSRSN

TNFR1 = molecular target: T2, TNFR1 (UniProt P19438 30-211, limits assumed)
T2 sequence (looked up): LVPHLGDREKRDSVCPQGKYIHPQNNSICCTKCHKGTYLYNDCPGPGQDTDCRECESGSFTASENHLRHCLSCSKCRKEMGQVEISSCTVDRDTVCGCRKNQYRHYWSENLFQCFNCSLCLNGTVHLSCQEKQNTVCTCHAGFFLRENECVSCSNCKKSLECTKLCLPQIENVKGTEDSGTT

TNFR2 = molecular target: T3, TNFR2 (UniProt P20333 23-257, limits assumed)
T3 sequence (looked up): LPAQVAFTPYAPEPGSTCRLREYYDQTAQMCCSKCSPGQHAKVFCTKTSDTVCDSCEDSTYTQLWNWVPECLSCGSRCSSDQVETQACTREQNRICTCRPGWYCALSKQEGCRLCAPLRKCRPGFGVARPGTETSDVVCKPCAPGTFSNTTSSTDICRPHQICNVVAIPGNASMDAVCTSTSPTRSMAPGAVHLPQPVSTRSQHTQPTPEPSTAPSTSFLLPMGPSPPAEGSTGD

DR3 = molecular target: T4, DR3 (UniProt Q93038 25-199, limits assumed)
T4 sequence (looked up): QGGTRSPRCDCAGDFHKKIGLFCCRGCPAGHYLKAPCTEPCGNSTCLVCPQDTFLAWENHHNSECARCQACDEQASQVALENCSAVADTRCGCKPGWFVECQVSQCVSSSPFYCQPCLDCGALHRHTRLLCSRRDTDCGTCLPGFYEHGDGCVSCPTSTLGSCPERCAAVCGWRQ

DR4 = molecular target: T5, DR4 (UniProt O00220 24-239, limits assumed)
T5 sequence (looked up): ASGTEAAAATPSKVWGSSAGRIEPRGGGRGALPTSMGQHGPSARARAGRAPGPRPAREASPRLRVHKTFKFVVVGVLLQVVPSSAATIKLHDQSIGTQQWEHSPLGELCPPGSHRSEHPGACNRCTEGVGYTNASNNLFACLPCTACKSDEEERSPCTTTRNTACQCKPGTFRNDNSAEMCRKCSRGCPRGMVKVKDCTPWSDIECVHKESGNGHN

binding result (Fas): no binding | binding result (TNFR1): no binding | binding result (TNFR2): no binding | binding result (DR3): no binding | binding result (DR4): no binding
B1: truncated version of VEGI-alpha corresponding to the putative extracellular domain consisting of residues 38-174, expressed in E. coli (ligand)
chain: ALHWEHELGLAFTKNRMNYTNKFLLIPESGDYFIYSQVTFRGMTSECSEIRQAGRPNKPDSITVVITKVTDSYPEPTQLLMGTKSVCEVGSNWFQPIYLGAMFSLQEGDKLMVNVSDISLVDYTKEDKTFFGAFLL
notes: also called VEGI-alpha deletion mutant; the mutant
